Consider 1 molecule from PMC5041027 (Membranes, 2016).

The test has as its target Bacillus anthracis protective antigen, 63 kDa activated form (PA63), as ion channels in a tethered b (B. anthracis, UniProt P13423). The test is described as follows: SPR. The following applies: both partners purified.

Bacillus anthracis protective antigen, 63 kDa activated form (PA63), as ion channels in a tethered b, sequence (P13423 197-764): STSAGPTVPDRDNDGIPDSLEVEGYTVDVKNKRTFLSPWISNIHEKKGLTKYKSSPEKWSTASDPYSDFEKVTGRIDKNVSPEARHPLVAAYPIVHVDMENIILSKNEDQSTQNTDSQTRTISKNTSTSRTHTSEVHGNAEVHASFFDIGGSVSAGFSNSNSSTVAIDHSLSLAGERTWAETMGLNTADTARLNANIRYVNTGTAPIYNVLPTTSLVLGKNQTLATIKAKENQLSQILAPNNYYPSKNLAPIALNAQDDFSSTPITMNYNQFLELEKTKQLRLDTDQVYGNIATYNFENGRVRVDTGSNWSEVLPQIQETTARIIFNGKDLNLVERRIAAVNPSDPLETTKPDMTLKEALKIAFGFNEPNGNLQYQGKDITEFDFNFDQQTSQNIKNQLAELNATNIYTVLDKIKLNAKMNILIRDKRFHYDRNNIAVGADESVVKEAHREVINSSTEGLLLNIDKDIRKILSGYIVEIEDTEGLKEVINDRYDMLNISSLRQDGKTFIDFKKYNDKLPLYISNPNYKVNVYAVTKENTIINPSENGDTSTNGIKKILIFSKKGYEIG

B1: Bacillus anthracis Lethal Factor (natural protein)
chain: AGGHGDVGMHVKEKEKNKDENKRKDEERNKTQEEHLKEIMKHIVKIEVKGEEAVKKEAAEKLLEKVPSDVLEMYKAIGGKIYIVDGDITKHISLEALSEDKKKIKDIYGKDALLHEHYVYAKEGYEPVLVIQSSEDYVENTEKALNVYYEIGKILSRDILSKINQPYQKFLDVLNTIKNASDSDGQDLLFTNQLKEHPTDFSVEFLEQNSNEVQEVFAKAFAYYIEPQHRDVLQLYAPEAFNYMDKFNEQEINLSLEELKDQRMLARYEKWEKIKQHYQHWSDSLSEEGRGLLKKLQIPIEPKKDDIIHSLSQEEKELLKRIQIDSSDFLSTEEKEFLKKLQIDIRDSLSEEEKELLNRIQVDSSNPLSEKEKEFLKKLKLDIQPYDINQRLQDTGGLIDSPSINLDVRKQYKRDIQNIDALLHQSIGSTLYNKIYLYENMNINNLTATLGADLVDSTDNTKINRGIFNEFKKNFKYSISSNYMIVDINERPALDNERLKWRIQLSPDTRAGYLENGKLILQRNIGLEIKDVQIIKQSEKEYIRIDAKVVPKSKIDTKIQEAQLNINQEWNKALGLPKYTKLITFNVHNRYASNIVESAYLILNEWKNNIQSDLIKKVTNYLVDGNGRFVFTDITLPNIAEQYTHQDEIYEQVHSKGLYVPESRSILLHGPSKGVELRNDSEGFIHEFGHAVDDYAGYLLDKNQSDLVTNSKKFIDIFKEEGSNLTSYGRTNEAEFFAEAFRLMHSTDHAERLKVQKNAPKTFQFINDQIKFIINS
Take B1: the “stoichiometry N” value is 2 LF molecules per PA63 channel.
